We go through 38 variants from the Human Domainome abundance scans (Beltran et al. 2025).

± gives the uncertainty stated by the source.

B1: SAM and SH3 domain-containing protein 1, residues 630 to 700; numbered along this chain, O94885 (parent)
chain: GRPPQPKSVEDLLDRINLKEHMPTFLFNGYEDLDTFKLLEEEDLDELNIRDPEHRAVLLTAVELLQEYDSN

In this data set the parent is B1. The data set is described as follows: abundance fitness (aPCA) (normalised: wild type 0, dead -1); higher = more abundant; growth selection in yeast, the domain comes from the species named. The settings on record: Homo sapiens.
On to GRPPQPKSVEDLLDRINLKEHMPTFLFNGYEDLDTFKILEEEDLDELNIRDPEHRAVLLTAVELLQEYDSN, for which the abundance fitness was -0.76 ± 0.096.
Regarding GRPPQPKSVEDLLDRINLKEHMPTFLFNGYEDLDTFKLLEEEDLDELNIRDEEHRAVLLTAVELLQEYDSN, the abundance fitness was -0.317 ± 0.059.
The value for GRPPQPKSVEDLLDRINLKEHMPTFLFNGYEDDDTFKLLEEEDLDELNIRDPEHRAVLLTAVELLQEYDSN was -0.76 ± 0.092.
As to GRPPQPKSVEDLLDRINLKEHMPTFLFNGYEDLDTFKLHEEEDLDELNIRDPEHRAVLLTAVELLQEYDSN, the abundance fitness was -0.812 ± 0.072.
In the case of GRPPQPKSVEDLLDRINLKEHMPTFLFNGYEDLDTFKLLEEEDLDELNIRDPEHRAVLLTAVELAQEYDSN it was -0.625 ± 0.065; in that of GRPPQPKSVEDLLDRINLKEHMPTFLFNGYEDLDTFKLLEIEDLDELNIRDPEHRAVLLTAVELLQEYDSN, -0.588 ± 0.072; in that of GRPPQPKSVEDLLDRINLKEHMPTFLFNGYEDLDTFKLLEEEDLDELNIRDPEHRAVLYTAVELLQEYDSN, -0.823 ± 0.072.
With GRPPQPKSVEDLLDRINLKEHMPTFLFNGYEDLDTFKLLEEEDLDEQNIRDPEHRAVLLTAVELLQEYDSN, the abundance fitness was -0.805 ± 0.092.
In the case of GRPPQPKSVEDLLDRINLKEHMPTFLFNGHEDLDTFKLLEEEDLDELNIRDPEHRAVLLTAVELLQEYDSN it was -0.737 ± 0.071.
On to GRPPQPKSVEDLLDRINLKEHMPTFLFNVYEDLDTFKLLEEEDLDELNIRDPEHRAVLLTAVELLQEYDSN, for which the abundance fitness is -1.17 ± 0.089.
With GRPPQPKSVEDLLDRINLKEHMPRFLFNGYEDLDTFKLLEEEDLDELNIRDPEHRAVLLTAVELLQEYDSN, the abundance fitness was -0.367 ± 0.04.
The value for GRPPQPKSVEDLLDRINLKEHMPTFLFNGYEDLDTFKLLEEEDLDELNIRDPEHQAVLLTAVELLQEYDSN was -0.5 ± 0.071; that for GRPPQPKSVEDLLDRINLKEHMPTFLFNGYEDLDTFKLLEEEDLDELNIRDPEHRAVLLTAVELLNEYDSN was 0.059 ± 0.038; that for GRPPQPKSVEDLLDRINLKEHMPTFLFNGYEDLDTFKLLEEEDLDELNIRDPEHRAVLLTAVELLTEYDSN was -0.347 ± 0.044.
In the case of GRPPQPKSVEDLLDRINLKEHMPTFLFNGYEDLDTFKLLEEEDLDELNIRDPEHRDVLLTAVELLQEYDSN it was -0.096 ± 0.046.
For GRPPQPKSVEDLLDRINLKEHMPTFLFNGYEDLDTGKLLEEEDLDELNIRDPEHRAVLLTAVELLQEYDSN, the abundance fitness was -0.642 ± 0.064.
Regarding GRPPQPKSVEDLLDRINLKEHMPTFLFNGYEDLDTFKLLEEEDLDELNIRDPEARAVLLTAVELLQEYDSN, the abundance fitness is -0.169 ± 0.039.
As to GRPPQPKSVEDLLDRINLKEHMPTFLFNGYEDLDTFKLLEEEDLDELNIRDPEHRAVLLTAVELLQEYDSA, the abundance fitness worked out at 0.116 ± 0.045.
GRPPQPKSVEDLLDRITLKEHMPTFLFNGYEDLDTFKLLEEEDLDELNIRDPEHRAVLLTAVELLQEYDSN: the abundance fitness is -0.842 ± 0.064.
The value for GRPPQPKSVEDLLDRISLKEHMPTFLFNGYEDLDTFKLLEEEDLDELNIRDPEHRAVLLTAVELLQEYDSN was -0.279 ± 0.04; that for GRPPQPKSVEDLLDRINLKEHMPTFLFNGYEDLDTFKLLEEEDLDELNIRDPEHRAVLLTLVELLQEYDSN was -0.997 ± 0.071.
In the case of GRPPQPKSVEDLLDRINLKEHMPTFLFNGYEDLDTFKLLEEQDLDELNIRDPEHRAVLLTAVELLQEYDSN it was -0.023 ± 0.049.
The value for GRPPQPKSVEDLLDRINLQEHMPTFLFNGYEDLDTFKLLEEEDLDELNIRDPEHRAVLLTAVELLQEYDSN was 0.002 ± 0.044; that for GRPPQPKSQEDLLDRINLKEHMPTFLFNGYEDLDTFKLLEEEDLDELNIRDPEHRAVLLTAVELLQEYDSN was -0.796 ± 0.087; that for GRPPQPKSVEDLLDRINLKEHMPTFRFNGYEDLDTFKLLEEEDLDELNIRDPEHRAVLLTAVELLQEYDSN was -0.111 ± 0.039.
Regarding GRPPQKKSVEDLLDRINLKEHMPTFLFNGYEDLDTFKLLEEEDLDELNIRDPEHRAVLLTAVELLQEYDSN, the abundance fitness was -0.63 ± 0.1.
In the case of GRPPQPKVVEDLLDRINLKEHMPTFLFNGYEDLDTFKLLEEEDLDELNIRDPEHRAVLLTAVELLQEYDSN it was -1.02 ± 0.1; in that of GRPPQPKSVEDLLDRINQKEHMPTFLFNGYEDLDTFKLLEEEDLDELNIRDPEHRAVLLTAVELLQEYDSN, -0.652 ± 0.074.
As for GRPPQPKSVEDLLDRINLKEHMPTFLFNGYEDLDTFKLLEEEDLDELNIRDPEHRAVLLTAVELLQIYDSN, the abundance fitness is -0.492 ± 0.057.
Consider GRPPQPKSVEDLLDRINLKEHMPTFLFNGYEDLDTFKLLEEEDLDELNIRDPEHRAVLLTAVELLQGYDSN, for which the abundance fitness is -0.107 ± 0.046.
The value for GRPPQPKSVEDLLDRINLKEHMPTFLFNGYEDLDTFKLLEEEDLDELNIRDPEHRAVLLTAVELLQAYDSN was -0.082 ± 0.048; that for GRPPQPKSVEDLLDRINLKEHMPTFLFPGYEDLDTFKLLEEEDLDELNIRDPEHRAVLLTAVELLQEYDSN was -0.856 ± 0.075; that for PRPPQPKSVEDLLDRINLKEHMPTFLFNGYEDLDTFKLLEEEDLDELNIRDPEHRAVLLTAVELLQEYDSN was -0.137 ± 0.27.
The value for GRPPQPKSVEDLLDRINLKEHMPTFLTNGYEDLDTFKLLEEEDLDELNIRDPEHRAVLLTAVELLQEYDSN was 0.341 ± 0.036; that for GRPPQPKSVEDLLDRINLKEHMPTFLFNGYEDLDTFKLLEEEDLDELNIRNPEHRAVLLTAVELLQEYDSN was -0.159 ± 0.049; that for GRPPQPKSVEDLDDRINLKEHMPTFLFNGYEDLDTFKLLEEEDLDELNIRDPEHRAVLLTAVELLQEYDSN was -0.762 ± 0.1.
In the case of GRPPQPKSVEDLLTRINLKEHMPTFLFNGYEDLDTFKLLEEEDLDELNIRDPEHRAVLLTAVELLQEYDSN, the abundance fitness is -0.086 ± 0.045.
As to GRPPQPKSVEDLLFRINLKEHMPTFLFNGYEDLDTFKLLEEEDLDELNIRDPEHRAVLLTAVELLQEYDSN, the abundance fitness was -0.734 ± 0.068.
